T1: amphyphisin SH3 (AMPH_HUMAN), P49418
T1 chain: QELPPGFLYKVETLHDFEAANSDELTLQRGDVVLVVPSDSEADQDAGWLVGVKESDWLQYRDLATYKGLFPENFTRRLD


Assays:
[1] = target: T1, amphyphisin SH3 (AMPH_HUMAN), P49418; assay: SPOT array
[2] = target: endophilin SH3 (SH3G2_HUMAN), Q99962; assay: SPOT array

| Binder | normalised SPOT signal, Boehringer light units (BLU); mean over the file's lines of this peptide [1] | normalised SPOT signal, Boehringer light units (BLU); mean over the file's lines of this peptide [2] |
| --- | --- | --- |
| IIQELRRPKYTIYF [Q9Y4Z6 82-95] | 32 | 134 |
| IIRPPVRPPDPPSR [O60890 736-750] | 3250 | 3430 |
| IGVSPGRPGKSVLF [Q92918 675-688] | 131 | 128 |
| IIHVISRPLKAPPA [Q9NRY3 784-797] | 83.7 | 71.7 |
| ILDTLRRPKPVVDP [Q9NQU5 43-56] | 26.6 | 0 |
| IGYDFRRPLAQLRE [O60288 996-1009] | 41.5 | 205 |
| IKPFPSRPPVLTQE [Q9P2K1 327-341] | 48.4 | 437 |
| IKILPARPIKESEY [Q9P2U9 65-78] | 118 | 458 |
| ILAKISRPKKRAKT [P48048 178-191] | 123 | 58.3 |
| IIPSPKRPVKLLSG [P04114 925-938] | 73.4 | 1060 |
| IHSDPLRPRRETSH [P20849 240-253] | 5480 | 1340 |
| IKFVIKRPELLTHS [P78347 534-547] | 28.9 | 63.7 |
| IKILLRRPNEKKSK [P32246 223-236] | 37.1 | 81 |
| IKKDLSRPQKPQLV [P31629 870-883] | 107 | 96.8 |
| ALRGLVRPHKKRKK [Q9NY93 500-513] | 54.6 | 108 |
| IKTPPKRPGGRRRG [Q15910 343-356] | 68.6 | 628 |
| IIRQIRRPKNVVLR [O94887 105-118] | 15.8 | 49.2 |
